± gives the standard deviation of the averaged measurements.
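Note: ATP exposure 15 min at 22 °C before imaging.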

In the data set the test system is ATP. The data set is described as follows: switch fluorescence ratio, 500 uM ATP over buffer (Cy3 cluster intensity, sum of 5 cycles each) (fold (ratio)); higher = stronger signal-on switching upon ATP binding; sequences stand for … in TCGTCGGCAGCGTCAGATGTGTATAAGAGACAGTTTTTTTTTTTTTTTTTTTTTTTTT…TC. The settings on record: aptamer strand: ATP DNA aptamer (quencher-CACCTGGGGGAGTATTGCGGAGGAAGG + anchor), 100 nM annealed; ATP concentration: 500 uM. A digest of the protocol: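 Values give the fluorescence ratio for each switch-domain sequence, averaged from per-cluster ratios of summed target-cycle to summed buffer-cycle Cy3 intensity. The Cy3-labelled switching-strand clusters sat on a modified Illumina MiSeq flow-cell, were annealed to 100 nM quencher-labelled ATP aptamer, and were imaged in selection buffer, then after 15 min with 500 uM ATP at 22 °C. Five cycles ran with NaOH stripping and re-annealing between them, and clusters outside 100-1000 RFU were excluded.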
CAGGTGAGTT: the switch fluorescence ratio was 1.34 ± 0.32. For the sequence TATCATTTTT, the switch fluorescence ratio was found to be 1 ± 0.011. For CCCGAATCCT, the switch fluorescence ratio stood at 1.06 ± 0.034. For CAGGGGTCTG, the switch fluorescence ratio came to 0.997 ± 0.038. Regarding GAGGCACGG, the switch fluorescence ratio turned out to be 1.0469 ± 0.00025.

GCAATCAGAA: the switch fluorescence ratio was 1.04 ± 0.035. On to AGTTTTTTGT, for which the switch fluorescence ratio worked out at 0.979 ± 0.042. On to TATTTTGGTC, for which the switch fluorescence ratio came to 1.025 ± 0.0078. Take ACAGTATTCT: the switch fluorescence ratio was 1.047 ± 0.01. Under TGAAAAGGGC stands 0.9875 ± 0.0095. On to GCAATATGGG, for which the switch fluorescence ratio was determined as 1.84 ± 0.2.

With TGACGGGCAC, the switch fluorescence ratio amounted to 1.17 ± 0.036. Turning to TGGCCATAGG, the switch fluorescence ratio is 0.999 ± 0.041. CCCACTGGGA: the switch fluorescence ratio came to 1.32 ± 0.39. As for GGCGTAGGAG, the switch fluorescence ratio was 0.997 ± 0.021. As to TTAAAAAGTT, the switch fluorescence ratio was 1 ± 0.031.

Regarding CTCCTCGTCA, the switch fluorescence ratio is 1.17 ± 0.036. Under ATTGATTTAT stands 0.987 ± 0.045; under GGAATAGGGG, 0.991 ± 0.018. As to CCGTTGAAGG, the switch fluorescence ratio was found to be 1.01 ± 0.016.

Regarding CGGACCGGGG, the switch fluorescence ratio came out at 0.996 ± 0.041. Under GTGTATCGGT stands 0.994 ± 0.023; under ATGCATTTTG, 0.97 ± 0.03; under TATAAGGGGC, 0.997 ± 0.027. Under TTTGTAGCAG stands 1.09 ± 0.028; under GAGGGAATGG, 1.07 ± 0.061. The value for CGCCGGGTTG was 0.984 ± 0.033; that for CAAATTTGGT was 0.993 ± 0.032. Regarding TCGGCGTATC, the switch fluorescence ratio is 0.979 ± 0.01.

TTATTCGGCT: the switch fluorescence ratio was 1.08 ± 0.05. On to GGGAGGAGCA, for which the switch fluorescence ratio turned out to be 1.01 ± 0.073.

For CTGGGGGTCA, the switch fluorescence ratio was found to be 1.04 ± 0.026.

Regarding CTCATCGGTT, the switch fluorescence ratio was 1.007 ± 0.0011.

For the sequence TCGGGATAGC, the switch fluorescence ratio was 1.08 ± 0.052. For the sequence AATCGGCGTC, the switch fluorescence ratio was found to be 1.08 ± 0.15. For CCGGCTGGTG, the switch fluorescence ratio was determined as 1.197 ± 0.0056. In the case of CGGTTATAGG, the switch fluorescence ratio is 0.967 ± 0.012. CTAGGGGGAT: the switch fluorescence ratio was 0.9962 ± 0.0043. As to GAGTCTTTTA, the switch fluorescence ratio was determined as 0.959 ± 0.013. Turning to GTGATAGGGC, the switch fluorescence ratio was 0.999 ± 0.025. In the case of GAGTCACGGA, the switch fluorescence ratio came out at 1.01 ± 0.046. As for TGCGCCAGGG, the switch fluorescence ratio was determined as 1.263 ± 0.0037. For the sequence ATGTTTTTTT, the switch fluorescence ratio turned out to be 0.9915 ± 0.0073. The value for GTATAAGGAT was 1.03 ± 0.019.

On to GCCTGGGGAA, for which the switch fluorescence ratio is 0.9844 ± 0.0087. With AAGGGGCGAG, the switch fluorescence ratio turned out to be 0.9796 ± 0.0074.

On to CCAGAATTAA, for which the switch fluorescence ratio is 0.976 ± 0.011. Take AATTTGATAA: the switch fluorescence ratio worked out at 0.981 ± 0.011.

GGTGTATAGG: the switch fluorescence ratio came out at 1.01 ± 0.011. Under TGCGAATAGG stands 1.0088 ± 0.00022; under AGGGATCGG, 1 ± 0.05.

As for TGATTATAGG, the switch fluorescence ratio came out at 0.992 ± 0.01.

On to GCGTCCCGTG, for which the switch fluorescence ratio stood at 0.985 ± 0.11.

In the case of TTTTATAAAT, the switch fluorescence ratio was 1.02 ± 0.0071. With CGGGCGGGAC, the switch fluorescence ratio was determined as 1.59 ± 0.021. Consider TTACGTAGGC, for which the switch fluorescence ratio stood at 1.09 ± 0.012. As for GCGATTAAGG, the switch fluorescence ratio was 0.9904 ± 0.0013. AAGGGTCCAC: the switch fluorescence ratio turned out to be 0.9907 ± 0.0079. As to CCTGTAGGCC, the switch fluorescence ratio stood at 0.998 ± 0.027. The value for TGACTACCAT was 1.07 ± 0.08. On to GGGGAGTTAT, for which the switch fluorescence ratio came out at 1.01 ± 0.0024. As to GCCTCCAGTT, the switch fluorescence ratio is 1.15 ± 0.025.

As to ACGTGGTAGC, the switch fluorescence ratio was 1 ± 0.03. As to TGGCCTCATC, the switch fluorescence ratio amounted to 1.02 ± 0.058. For the sequence CGGCTGGCTG, the switch fluorescence ratio turned out to be 1.04 ± 0.011. Under TATGGGCAGG stands 1.04 ± 0.022; under GGGGCGGGGT, 1.01 ± 0.018; under TAAACTGGGA, 1.004 ± 0.0093. Under ATGACTGATA stands 1.028 ± 0.0038; under TTAATCTGTA, 0.99 ± 0.068; under TAAGCGGGGG, 0.999 ± 0.017. Take ATCTTGCGGA: the switch fluorescence ratio was 1.02 ± 0.05.

TATTATATTA: the switch fluorescence ratio was determined as 1.02 ± 0.019. Regarding TGGGGTCGCT, the switch fluorescence ratio amounted to 0.9829 ± 0.001. As for TTTTATCACT, the switch fluorescence ratio is 1.03 ± 0.034. Turning to TTCGGGAGGG, the switch fluorescence ratio came to 0.973 ± 0.029. On to CCTGTTTTTT, for which the switch fluorescence ratio amounted to 1.02 ± 0.022. Take TAGTTATTAC: the switch fluorescence ratio was determined as 1.08 ± 0.14. For AACTGTGGAA, the switch fluorescence ratio came to 0.991 ± 0.015.

The record behind these values is the supplement of paper PMC10126150.
